The values that follow are results of earlier work, collected in paper PMC6538672.

Broadly, the Kd is the concentration at which binding is half-saturated.

The series concerns the target RMI1:RMI2 (Homo sapiens) (UniProt Q9H9A7).
Sequence of UniProt Q9H9A7 (Q9H9A7 whole entry, chain 1 of 2): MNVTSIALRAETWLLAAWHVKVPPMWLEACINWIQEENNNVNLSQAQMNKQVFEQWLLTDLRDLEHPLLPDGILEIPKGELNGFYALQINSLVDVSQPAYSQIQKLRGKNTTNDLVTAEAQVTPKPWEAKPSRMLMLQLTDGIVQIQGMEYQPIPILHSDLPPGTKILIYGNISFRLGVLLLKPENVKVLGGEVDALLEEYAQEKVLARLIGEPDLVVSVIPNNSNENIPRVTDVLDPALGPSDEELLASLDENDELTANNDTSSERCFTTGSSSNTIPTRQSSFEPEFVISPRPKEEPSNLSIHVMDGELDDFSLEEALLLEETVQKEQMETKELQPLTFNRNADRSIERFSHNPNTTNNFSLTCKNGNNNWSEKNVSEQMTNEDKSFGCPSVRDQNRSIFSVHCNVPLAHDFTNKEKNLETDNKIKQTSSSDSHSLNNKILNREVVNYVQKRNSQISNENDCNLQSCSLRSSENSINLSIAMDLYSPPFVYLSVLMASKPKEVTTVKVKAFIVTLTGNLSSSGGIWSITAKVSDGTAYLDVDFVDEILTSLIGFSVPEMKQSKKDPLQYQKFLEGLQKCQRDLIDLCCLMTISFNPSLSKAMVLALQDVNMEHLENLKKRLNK
Sequence of UniProt Q9H9A7 (Q96E14 2-147, chain 2 of 2, further chain): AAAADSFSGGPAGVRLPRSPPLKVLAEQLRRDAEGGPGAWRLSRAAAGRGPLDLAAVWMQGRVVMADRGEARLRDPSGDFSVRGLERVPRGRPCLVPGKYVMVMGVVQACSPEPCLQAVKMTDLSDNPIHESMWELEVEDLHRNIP

Take FANCM MM2 (from UniProt Q8IYD8): the Kd is 5 nM.
